# From the DeepSol protein solubility set
# Assay: soluble on expression in E. coli; label from the status in PepcDB or PDB records
row,Sequence,soluble on expression in E. coli
1,NTGIVSSFFTYTGPAHGTQWDEIDIEFLGKDTTKVQFNYYTNGVGGHEKVISLGFDASKGFHTYAFDWQPGYIKWYVDGVLKHTATANIPSTPGKIMMNLWNGTGVDDWLGSYNGANPLYAEYDWVKYTSNQTGGSFFEPFNSYNSGTWEKADGYSNGGVFNCTWRANNVNFTNDGKLKLGLTSSAYNKFDCAEYRSTNIYGYGLYEVSMKPAK,soluble
2,MSGSMLQLIDLCKGYVDGDEFHPVLQGAELTLNQGDQLALMGESGSGKSTLLNLIAGLDSADSGEIWFPGFPMHHTSEHHRTAFRRDNIGQIFQQYNLLPTLNIADNIRFCRQLKGLPEDAGLWRQILSALDLMPLLGRYPEEVSGGQQQRAAIARALYMEPKILLADEPTGSLDERNAEAVMRLLTTLTRQLNCALLLVTHSEKVAQHMDGCIRLQGGQLHVMARS,not soluble
3,MRGSHHHHHHGMASMRILLSNDDGVHAPGIQTLAKALREFADVQVVAPDRNRSGASNSLTLESSLRTFTFDNGDIAVQMGTPTDCVYLGVNALMRPRPDIVVSGINAGPNLGDDVIYSGTVAAAMEGRHLGFPALAVSLNGYQHYDTAAAVTCALLRGLSREPLRTGRILNVNVPDLPLAQVKGIRVTRCGSRHPADKVIPQEDPRGNTLYWIGPPGDKYDAGPDTDFAAVDEGYVSVTPLHVDLTAHSAHDVVSDWLDSVGVGTQW,soluble
4,MEALRLGFSPCPNDTFIFYALVHGRVESPVPLEPVLEDVETLNRWALEGRLPLTKLSYAAYAQVRDRYVALRSGGALGRGVGPLVVARGPLQALEGLRVAVPGRHTTAYFLLSLYAQGFVPVEVRYDRILPMVAQGEVEAGLIIHESRFTYPRYGLVQVVDLGAWWEERTGLPLPLGAILARRDLGEGLIRALDEAVRRSVAYALAHPEEALDYMRAHAQELSDEVIWAHVHTYVNAFSLDVGEEGERAVARLFAEAEARGLAAPSPRPLFV,soluble
5,MGSDKIHHHHHHMTEFEVHIDLGGSTFPVGLARCNRVRGTERILFEYDAEWLASPDRFSLEPALALTRGAFAPPAGMTSFGSIGDSAPDTWGRRLMQRAERRRAAREGRSVRTLAESDYLLGVSDETRLGALRFRRVGETSFQAPIQAGVPALVELGRLLQVTERVLRDEETDEDLQLIFAPGSSLGGARPKASVIDQYGHLAIAKFPKDTDEYSVETWEEIALRLANQAGIVTPQHELVDVGGRAVMLSRRFDRDGTIRIPFLSAMAMMGARDGEPGSYPEMVDALTAHGAQGKTDAHALYRRVVFSVMISNVDDHLRNHGFLWLGNAGWSLAPAYDLNPVPSDLKARVLTTNIDLDESTCSVDLLEAASGYFGLTLANARRIIKDVASVTATWRNTARAVGARPAEIERMASAFEHDDLQHGLAL,not soluble
6,MGTITGEFTEHSAEAIAAMLSYIVQTEYEKKQLAKDTLQKYEEVVFLSQFANAVATCTGLQELIEVIRAEIRQVISVDEIFLYLYDQSQDSLTPLLYKTEESLQNFKAIEKIVERVLKLNQVEVIDDIQNDQDYLNQPSKIRSLLCYSLTVQNSIIGVLGLAHYQVKHFDSSDLNLFSTLTGQVAAAIRTAQYYETIKNYSQTLEIRLEHHHHHH,not soluble
7,MAINPFFTLVQRPVQSIEMAPPKPSAKGAKKAAKTVTKPKDGKKRRHARKESYSVYIYRVLKQVHPDTGVSSKAMSIMNSFVNDVFERIAAEASRLAHYNKRSTISSREIQTAVRLILPGELAKHAVSEGTKAVTKYTSSK,not soluble
8,MKHSHEEIRKIIPEMRRVQQIHFIGIGGAGMSGIAEILLNEGYQISGSDIADGVVTQRLAQAGAKIYIGHAEEHIEGASVVVVSSAIKDDNPELVTSKQKRIPVIQRAQMLAEIMRFRHGIAVAGTHGKTTTTAMISMIYTQAKLDPTFVNGGLVKSAGKNAHLGASRYLIAEADESDASFLHLQPMVSVVTNMEPDHMDTYEGDFEKMKATYVKFLHNLPFYGLAVMCADDPVLMELVPKVGRQVITYGFSEQADYRIEDYEQTGFQGHYTVICPNNERINVLLNVPGKHNALNATAALAVAKEEGIANEAILEALADFQGAGRRFDQLGEFIRPNGKVRLVDDYGHHPTEVGVTIKAAREGWGDKRIVMIFQPHRYSRTRDLFDDFVQVLSQVDALIMLDVYAAGEAPIVGADSKSLCRSIRNLGKVDPILVSDTSQLGDVLDQIIQDGDLILAQGAGSVSKISRGLAESWKN,soluble
9,MSRFQTLTPASLSREAFIEAFADIYEHSPWVAEKAYDLGIDDSLNDIEGLHQRMADILLSASREAQLALINAHPDLAGKAAIRGELTASSTSEQAGAGIHECSAEEFARFTELNDAYKARFGFPFIKAVKGSNRHQILAAFEERIQHSADEEFATALAEINKIALFRLQQL,not soluble
10,MGSDKIHHHHHHMIPEKKSIAIMKELSIGNTKQMLMINGVDVKNPLLLFLHGGPGTPQIGYVRHYQKELEQYFTVVHWDQRGSGLSYSKRISHHSMTINHFIKDTIQVTQWLLAHFSKSKLYLAGHSWGSILALHVLQQRPDLFYTYYGISQVVNPQDEESTAYQHIREISESKKASILSFLTRFIGAPPWKQDIQHLIYRFCVELTRGGFTHRHRQSLAVLFQMLTGNEYGVRNMHSFLNGLRFSKKHLTDELYRFNAFTSVPSIKVPCVFISGKHDLIVPAEISKQYYQELEAPEKRWFQFENSAHTPHIEEPSLFANTLSRHARNHL,not soluble
11,AIAADKEAAFDDAVEERVINEEYKIWKKNTPFLYDLVMTHALEWPSLTAQWLPDVTRPDGKDFSIHRLVLGTHTSDEQNHLVIASVQLPNDDAQFDASHYDSEKGEFGGFGSVSGKIEIEIKINHEGEVNRARYMPQNPCIIATKTPSCDVLVFDYTKHPSKPDPSGECNPDLRLRGHQKEGYGLSWNPNLSGNLLSASDDHTICLWDISAVPKEGKVVDAKTIFTGHTAVVEDVSWHLLHESLFGSVADDQKLMIWDTRSNNTSKPSHSVDAHTAEVNCLSFNPYSEFILATGSADKTVALWDLRNLKLKLHSFESHKDEIFQVQWSPHNETILASSGTDRRLNVWDLSKIGEEQSPEDAEDGPPELLFIHGGHTAKISDFSWNPNEPWVICSVSEDNIMQVWQMAENIYNDEDTEGSVDPEGQGS,soluble
12,GFPERELPRPGASRPAEKSRPPEAKGAQPADAWKAGRPRSEEDNELNLPNLAAAYSSILRSLGEDPQRQGLLKTPWRAATAMQFFTKGYQETISDVLNDAIFDEDHDEMVIVKDIDMFSMCEHHLVPFVGRVHIGYLPNKQVLGLSKLARIVEIYSRRLQVQERLTKQIAVAITEALQPAGVGVVIEATHMCMVMRGVQKMNSKTVTSTMLGVFREDPKTREEFLTLIRS,soluble
13,MTFRGPSPPRFGHSMDLPAYAIEAEGLYKTYAGTKTSPEKRALNGIDLKIPRGSIFGLLGPNGAGKSTFINILAGLVRKSSGTVRIWGRDIDQRPRDARAAIGVVPQELAADVFFTPRESLEVQAGFYGVPKSERRTDELLNALGLGDKAGAYVRQLSGGMKRRLMVAKAMVHQPPVLILDEPTAGVDVELRRQLWQYVTSLNELGVTIVLTTHYLEEAQELCDEIAIINRGEVVACEPTAKLLSRMDSRNVVVTPESPVTAAPVLEGFDTKLRSGGAFSVSYRTGQSSVEQVLAAVRASGLHIKDIATEDPDLEDVFVALTYGDPNAADPTKDLEHHHHHH,not soluble
14,MMHIAHSAPNHTVEGLYRAHNVWLTTWLRRRLGCPHSAADLAQDTFVKVLGARDTAQIIEPRAFLTTIAKRVLCNHYRRQDLERAYYQALAELPECAAPSEEERAIILETLVELDQLLDGLPALVKRAFLMSQVDGLSHGQIAAELDISIATVKRHLNKAALRCYFAL,not soluble
15,SLGRNWRSWRYAERADDLLISRGVLWREETVVPYGRMQLVEVTSGPVERHFGLASVQLHTAAAATDATIPGLDPAEAERLRDRLTELGEARSAG,soluble
16,MGSDKIHHHHHHMKVQYSFEREFEELMSDLLSKYGYEMFQMDGLGDQLDVVKFTEDFVRRGIIESTIDANANVRVTNISTYFIEISKPHTYLYSLYRIWQKMKEMFGKGVADEFVEAQINGAVYLHDRHHAALMPYCFAYTLKPIVEKGLPFIKTIKSEPAKHLSTFIQHVIQFVMFASNQSSGAVGLPDFFVWMWYFVKKDLKEGIIPRDKLDWYIEQHFQILTYSLNQPIRTTQSPYTNFTYLDRNYIKAIFEGERYPDGSLITDHVEDIIALQKHYWEWVSRERERQMFTFPVLTASLLYKDGKFLDEDSARFINKINMKWQDTNWYISDSIDAVASCCRLTSSTQTLKKFSLSSEEEEKLKGRMNSIGGSDLNIGSFKVITVNLPRIALESGGDREKYLQILRHRVQLIKKALAAVREIIKERISEGLLPLYENGLMLLNRQYGTIGVTGVWESASIMGLTTEDIDGLKYTEEGEVFVDNVLDTIREEAEKGYHEYGFTFNIEQVPAEKAAVTLAQKDRFLFGEKQPFEIYSNQWVPLMANTDVLNRIRYSGKWDKKVSGGAILHINLGESFKTEEESFNMVKMIADMGVMYFAFNTKISVCEDGHAFYGERCPVCGKAKVDEYMRIVGYLVPVSAFNKERREIEYPRRQFYDSLTIRR,not soluble
17,MKLTGKQTWVFEHPIFVNSAGTAAGPKEKDGPLGSLFDKTYDEMHCNQKSWEMAERQLMEDAVNVALQKNNLTKDDIDLLLAGDLLNQNVTANYVARHLKIPFLCMFGACSTSMETVAVASALVDGGFAKRALAATSSHNATAERQFRYPTEYGGQKPDTATSTVTGSGAVVISQTPGDIQITSATVGKVSDLGITDPFDMGSAMAPAAADTIKQHFKDLNRTADDYDLILTGDLSGVGSPIVKDILKEDGYPVGTKHDDCGLLIYTPDQQVFAGGSGCACSAVVTYSHIFKQLREGKLNRVFVVATGALLSPTMIQQKETIPTIAHGVVFERAGGASLEHHHHHH,soluble
18,TPGKSDEAKDVFQVQDIPPVTAIGQSGLRLNLIGKNDRILNVNSPVLYENFMVGQVESAHFDPSDQSVHYTIFIQSPNDKLIHSASRFWLESGINIETTGSGIKLNSAPLPALLSGAISFDSPKTKNSKNVKSEDSFTLYDSRSEVANLPDDRSLYYTAFFKQSVRGLTVGSPVEYKGLNVGVVSDVPYFDRNDSLHLFENGWIPVRIRIEPSRLEINADEQSKEHWKQQFQTALNKGLTATISSNNLLTGSKMIELNDQPSASPKLRPHTVYAGDTVIATQGGGLDDLQVKLADLLDKFDKLPLDKTVAELNGSLAELKSTLKSANAALSSIDKLVGKPQTQNIPNELNQTLKELRTTLQGVSPQSPIYGDVQNTLQSLDKTLKDVQPVINTLKEKPNALIFNSSSKDPIPKGSR,not soluble
19,SMFEIKKICCIGAGYVGGPTCSVIAHMCPEIRVTVVDVNESRINAWNSPTLPIYEPGLKEVVESCRGKNLFFSTNIDDAIKEADLVFISVNTPTKTYGMGKGRAADLKYIEACARRIVQNSNGYKIVTEKSAVPVRAAESIRRIFDANTKPNLNLQVLSNPEFLAEGTAIKDLKNPDRVLIGGDETPEGQRAVQALCAVYEHWVPREKILTTNTWSSELSKLAANAFLAQRISSINSISALCEATGADVEEVATAIGMDQRIGNKFLKASVGFGGSCFQKDVLNLVYLCEALNLPEVARYWQQVIDMNDYQRRRFASRIIDSLFNTVTDKKIAILGFAFKKDTGDTRESSSIYISKYLMDEGAHLHIYDPKVPREQIVVDLSHPGVSEDDQVSRLVTISKDPYEACDGAHAVVICTEWDMFKELDYERIHKKMLKPAFIFDGRRVLDGLHNELQTIGFQIETIGKKV,soluble
20,MSLISLQSDQLLEATVGQFMIEADKVAHVQVGNNLEHALLVLTKTGYTAIPVLDPSYRLHGLIGTNMIMNSIFGLERIEFEKLDQITVEEVMLTDIPRLHINDPIMKGFGMVINNGFVCVENDEQVFEGIFTRRVVLKELNKHIRSLNKEGGSHHHHHH,soluble
